In patent publication US9309320:

Target: murine CD95L, endogenous in SMA-560 tumor explants (murine) (UniProt P41047)
Assay: cell-based or functional assay

Sequence of UniProt P41047 (P41047 whole entry): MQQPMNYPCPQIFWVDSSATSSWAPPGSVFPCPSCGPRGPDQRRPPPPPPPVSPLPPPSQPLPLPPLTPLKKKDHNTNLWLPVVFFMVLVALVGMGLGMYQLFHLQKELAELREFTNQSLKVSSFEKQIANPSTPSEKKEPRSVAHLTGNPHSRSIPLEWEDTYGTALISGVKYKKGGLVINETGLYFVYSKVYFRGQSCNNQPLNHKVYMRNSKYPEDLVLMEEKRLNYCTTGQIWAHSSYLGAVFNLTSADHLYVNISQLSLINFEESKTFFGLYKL

With “MFL3, anti murine-CD95L neutralizing antibody” as the substance, how does the decrease in migration of cells out of SMA-560 tumor explants into collagen read?
Its decrease in migration of cells out of SMA-560 tumor explants into collagen is 50%.
